Experimental data reported in US9994813, “Role for the perlman syndrome exonuclease Dis3l2 in the Lin28-let-7 pathway” (Children's Medical Center Corporation).
Residue numbers refer to the chain shown, from its start.

Legend:
Lin28A = target: T1, Lin28A (UniProt Q8K3Y3 Q8K3Y3:1-209); assay: EMSA; conditions: tags: 6xHis, E. coli; label: 5'-32P; hairpin with 3' oligoU tail
T1 sequence: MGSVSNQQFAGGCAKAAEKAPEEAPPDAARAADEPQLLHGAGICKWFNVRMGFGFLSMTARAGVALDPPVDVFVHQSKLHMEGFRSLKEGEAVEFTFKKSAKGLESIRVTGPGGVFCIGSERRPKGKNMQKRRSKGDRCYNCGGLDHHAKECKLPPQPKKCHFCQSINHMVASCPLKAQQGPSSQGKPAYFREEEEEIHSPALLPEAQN
Method: (§1) EMSA experiments were performed as described previously. Briefly, 1 nM of the indicated radiolabeled synthetic RNA was incubated in the binding buffer (50 mM Tris pH 7.6, 100 mM NaCl, 10 mM […], 1 unit/µl RNaseOUT) with varying concentrations of catalytically inert recombinant 6x-His Dis3L2 or recombinant 6x-His Lin28 in the absence of competitor RNA. Nucleoprotein complexes were resolved by 4-20% non-denaturing TBE gel electrophoresis (Biorad, #345-0059) and visualized by autoradiography.

Dis3l2 D389N = target: T2, Dis3l2 D389N (Mus musculus, UniProt Q8CI75 Q8CI75:1-870, D389N); assay: EMSA; 1 nM RNA, 50 mM Tris pH 7.6, 100 mM NaCl; conditions: tags: 6xHis, E. coli; label: 5'-32P; hairpin with 3' oligoU tail
T2 sequence: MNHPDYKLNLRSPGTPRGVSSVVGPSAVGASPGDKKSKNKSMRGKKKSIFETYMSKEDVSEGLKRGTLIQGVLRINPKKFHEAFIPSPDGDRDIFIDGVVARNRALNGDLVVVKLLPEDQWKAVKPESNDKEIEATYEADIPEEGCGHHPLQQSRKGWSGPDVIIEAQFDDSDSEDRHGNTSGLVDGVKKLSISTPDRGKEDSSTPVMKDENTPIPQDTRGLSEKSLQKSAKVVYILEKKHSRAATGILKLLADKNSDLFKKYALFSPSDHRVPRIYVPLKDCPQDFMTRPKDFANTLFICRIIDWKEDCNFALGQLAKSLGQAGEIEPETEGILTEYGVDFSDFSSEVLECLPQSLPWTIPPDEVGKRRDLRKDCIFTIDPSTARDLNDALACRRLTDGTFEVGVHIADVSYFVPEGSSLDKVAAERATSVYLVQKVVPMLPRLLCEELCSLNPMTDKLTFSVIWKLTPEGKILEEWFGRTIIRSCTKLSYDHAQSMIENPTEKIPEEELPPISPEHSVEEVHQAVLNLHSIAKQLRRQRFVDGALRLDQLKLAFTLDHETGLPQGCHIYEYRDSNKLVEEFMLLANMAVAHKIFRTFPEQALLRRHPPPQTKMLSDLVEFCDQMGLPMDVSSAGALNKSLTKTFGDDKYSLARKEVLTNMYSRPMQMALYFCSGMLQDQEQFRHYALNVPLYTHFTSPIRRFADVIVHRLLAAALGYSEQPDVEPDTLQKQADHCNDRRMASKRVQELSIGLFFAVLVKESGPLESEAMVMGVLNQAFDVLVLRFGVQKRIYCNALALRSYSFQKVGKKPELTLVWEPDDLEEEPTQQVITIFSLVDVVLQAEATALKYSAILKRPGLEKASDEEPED
Method: as §1

[1] = target: T3, Dis3l2 (recombinant 6xHis) (Mus musculus, UniProt Q8CI75 Q8CI75:1-870); assay: cleavage_in_vitro; relative RNA stability difference versus non-uridylated; 0.05 mM MgCl2, 50 mM KCl, pH 7.5, 37 C; conditions: tags: 6xHis, pETDuet-1, E. coli; label: 5'-32P; hairpin with 3' oligoU tail
T3 sequence: T2 sequence with N389D
Method: RNA degradation assays were performed in a total of 20 µl reaction using 6.25 nM 5' end-labeled pre-miR-21, pre-let-7a-1, or pre-let-7a-1+14U RNA (see Table 2) together with Dis3l2 and/or Lin28A. The reactions were set up in the RNA degradation buffer (20 mM HEPES-KOH pH 7.5, 50 mM KCl, 0.05 mM MgCl2, 1 mM DTT) and incubated at 37° C. for 90 minutes. For time-course assays; recombinant 6x-His Dis3l2 was incubated with radiolabeled pre-let-7a-1 or pre-let-7a-1+14U. Bands from three independent experiments were quantified using ImageJ (NIH) and plotted using Prism (Graphpad). Values were fitted to one-phase decay curves with error bars representing +/- s.d. (n=3). For Uridylation-stimulated degradation assays; in vitro uridylation assays were performed as described previously[20,26,27] except with the addition of 10 µM cold competitor uridine triphosphate and immunopurified Dis3l2 where indicated.

Dis3l2 D389N (Flag) = target: T4, Dis3l2 D389N (Flag) (Mus musculus, UniProt Q8CI75 Q8CI75:1-870, D389N); assay: EMSA; retains binding though catalytically inactive; conditions: tags: Flag, immunopurified from V6.5 ESC; label: 5'-32P; hairpin with 3' oligoU tail
T4 sequence: T2 sequence

B1: mmu-pre-let-7a-1+14U (ssRNA)
RNA: UGAGGUAGUAGGUUGUAUAGUUUUAGGGUCACACCCACCACUGGGAGAUAACUAUACAAUCUACUGUCUUUCCUUUUUUUUUUUUUU
Question: Does B1 bind (Lin28A)?
Answer: Result: binds

Question: Does B1 bind (Dis3l2 D389N)?
Answer: Result: binds

Question: And the activity [1]?
Answer: The activity was over 10 fold.

Question: Does B1 bind (Dis3l2 D389N (Flag))?
Answer: Result: binds
